The source of these data is patent US20210030857A1 (NGM BIOPHARMACEUTICALS, published 2021).

Assay [1] has as its target human beta klotho / human FGFR1c receptor complex on cells (human, UniProt Q86Z14 1-1044; P11362 22-822). The experiment in a line: cell-based or functional assay.
For assay [2], the target named is T1, human beta klotho mutant H657A on HEK-293T cells (human, UniProt Q86Z14 1-1044).
T1 sequence: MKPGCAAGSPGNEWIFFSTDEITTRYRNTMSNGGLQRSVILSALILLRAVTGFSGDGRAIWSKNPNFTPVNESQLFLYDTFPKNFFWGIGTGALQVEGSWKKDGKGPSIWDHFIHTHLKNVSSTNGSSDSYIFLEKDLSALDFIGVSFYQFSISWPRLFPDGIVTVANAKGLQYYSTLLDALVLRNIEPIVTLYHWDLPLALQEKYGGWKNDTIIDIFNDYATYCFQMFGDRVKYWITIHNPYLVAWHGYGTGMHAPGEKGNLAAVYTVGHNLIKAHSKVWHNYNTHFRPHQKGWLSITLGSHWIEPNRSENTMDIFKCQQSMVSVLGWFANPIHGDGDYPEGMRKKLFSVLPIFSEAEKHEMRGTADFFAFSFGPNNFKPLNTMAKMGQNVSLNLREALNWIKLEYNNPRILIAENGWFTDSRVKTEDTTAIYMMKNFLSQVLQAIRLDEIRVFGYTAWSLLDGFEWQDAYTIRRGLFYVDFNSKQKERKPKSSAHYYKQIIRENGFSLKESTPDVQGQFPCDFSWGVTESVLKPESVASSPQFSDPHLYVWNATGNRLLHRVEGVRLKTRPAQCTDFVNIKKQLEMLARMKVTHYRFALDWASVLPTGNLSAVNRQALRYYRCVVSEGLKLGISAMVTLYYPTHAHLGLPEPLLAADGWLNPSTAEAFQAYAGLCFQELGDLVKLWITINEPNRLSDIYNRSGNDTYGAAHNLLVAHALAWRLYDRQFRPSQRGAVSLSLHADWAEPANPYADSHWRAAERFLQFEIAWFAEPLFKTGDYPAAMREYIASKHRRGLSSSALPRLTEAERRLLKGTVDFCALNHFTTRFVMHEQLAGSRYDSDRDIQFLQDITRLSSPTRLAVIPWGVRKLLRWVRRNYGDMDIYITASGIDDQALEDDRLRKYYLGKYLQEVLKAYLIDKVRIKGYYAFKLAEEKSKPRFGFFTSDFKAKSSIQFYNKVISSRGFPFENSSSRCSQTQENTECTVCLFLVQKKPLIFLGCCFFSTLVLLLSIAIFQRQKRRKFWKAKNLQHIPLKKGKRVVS
The experiment in a line: shotgun alanine mutagenesis, FACS on HEK-293T cells, antibody 0.5 µg/ml. The protocol:
(§1) In order to further identify specific binding residues within human beta klotho KL2 domain, shotgun mutagenesis was used to separately mutate individual residues of the KL2 domain of human beta klotho to an alanine (e.g., residues F508A-L1008A). […] For example, screening of the beta klotho mutant proteins was conducted at a concentration of 0.5 μg/ml for the humanized 5H23 antibody, 1.0 μg/ml for the Fab fragment, and 2.0 μg/ml for a positive control polyclonal anti-beta klotho antibodies.
(§2) The resulting mapping identified three specific binding residues, H657, Y701 and R703, which were negative for binding by the humanized 5H23 antibody, but were positive for the control polyclonal anti-beta klotho antibodies. These residues represented amino acids whose side changes made the highest energetic contributions to the antibody-epitope interation as shown in Table 31. The locations of the three identified residues were modeled by showing them (dark spheres) at the equivalent positions on human cytosolic beta-glucosidase (PDB ID #2JFE; Tribolo et al., J. Mol. Biol. 370, 964-975 (2007)), identified by BLAST alignment of the two proteins as shown in FIG. 6.

Assay [3] concerns the target T2, human beta klotho mutant Y701A on HEK-293T cells (human, UniProt Q86Z14 1-1044).
T2 sequence: T1 sequence with A657H, Y701A
The description is as above. The protocol: as §1, §2

Where a chain is given by its changes, count along the chain named.

human beta klotho / human FGFR1c receptor complex on cells, sequence (Q86Z14 whole entry, chain 1 of 2): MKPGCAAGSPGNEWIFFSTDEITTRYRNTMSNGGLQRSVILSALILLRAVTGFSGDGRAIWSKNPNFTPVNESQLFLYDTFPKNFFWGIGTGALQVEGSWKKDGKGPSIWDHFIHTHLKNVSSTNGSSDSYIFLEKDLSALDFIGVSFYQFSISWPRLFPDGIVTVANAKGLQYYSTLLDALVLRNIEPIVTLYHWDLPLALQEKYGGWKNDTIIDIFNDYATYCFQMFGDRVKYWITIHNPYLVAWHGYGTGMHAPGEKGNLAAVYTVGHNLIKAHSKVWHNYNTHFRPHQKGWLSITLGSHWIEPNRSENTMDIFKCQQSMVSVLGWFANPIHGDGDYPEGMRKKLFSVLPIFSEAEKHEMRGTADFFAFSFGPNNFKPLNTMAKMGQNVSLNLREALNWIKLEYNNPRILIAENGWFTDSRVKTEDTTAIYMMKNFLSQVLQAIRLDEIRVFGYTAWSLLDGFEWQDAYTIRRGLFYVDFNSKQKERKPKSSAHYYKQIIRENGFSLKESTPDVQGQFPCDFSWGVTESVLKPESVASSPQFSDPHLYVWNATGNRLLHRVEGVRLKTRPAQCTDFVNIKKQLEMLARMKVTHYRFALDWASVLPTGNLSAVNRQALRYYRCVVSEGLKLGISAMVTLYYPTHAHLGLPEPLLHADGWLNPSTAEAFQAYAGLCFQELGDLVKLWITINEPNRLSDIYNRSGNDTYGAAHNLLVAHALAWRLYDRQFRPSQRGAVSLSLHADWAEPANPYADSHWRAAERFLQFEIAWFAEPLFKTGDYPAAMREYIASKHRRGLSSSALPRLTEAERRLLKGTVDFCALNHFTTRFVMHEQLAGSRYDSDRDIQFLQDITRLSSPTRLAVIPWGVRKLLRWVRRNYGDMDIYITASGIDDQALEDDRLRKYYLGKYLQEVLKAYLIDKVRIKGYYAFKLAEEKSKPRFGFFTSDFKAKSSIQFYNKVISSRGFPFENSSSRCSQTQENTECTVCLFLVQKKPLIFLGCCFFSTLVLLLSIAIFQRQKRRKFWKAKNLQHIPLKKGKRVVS
human beta klotho / human FGFR1c receptor complex on cells, sequence (P11362 22-822 limits assumed, chain 2 of 2): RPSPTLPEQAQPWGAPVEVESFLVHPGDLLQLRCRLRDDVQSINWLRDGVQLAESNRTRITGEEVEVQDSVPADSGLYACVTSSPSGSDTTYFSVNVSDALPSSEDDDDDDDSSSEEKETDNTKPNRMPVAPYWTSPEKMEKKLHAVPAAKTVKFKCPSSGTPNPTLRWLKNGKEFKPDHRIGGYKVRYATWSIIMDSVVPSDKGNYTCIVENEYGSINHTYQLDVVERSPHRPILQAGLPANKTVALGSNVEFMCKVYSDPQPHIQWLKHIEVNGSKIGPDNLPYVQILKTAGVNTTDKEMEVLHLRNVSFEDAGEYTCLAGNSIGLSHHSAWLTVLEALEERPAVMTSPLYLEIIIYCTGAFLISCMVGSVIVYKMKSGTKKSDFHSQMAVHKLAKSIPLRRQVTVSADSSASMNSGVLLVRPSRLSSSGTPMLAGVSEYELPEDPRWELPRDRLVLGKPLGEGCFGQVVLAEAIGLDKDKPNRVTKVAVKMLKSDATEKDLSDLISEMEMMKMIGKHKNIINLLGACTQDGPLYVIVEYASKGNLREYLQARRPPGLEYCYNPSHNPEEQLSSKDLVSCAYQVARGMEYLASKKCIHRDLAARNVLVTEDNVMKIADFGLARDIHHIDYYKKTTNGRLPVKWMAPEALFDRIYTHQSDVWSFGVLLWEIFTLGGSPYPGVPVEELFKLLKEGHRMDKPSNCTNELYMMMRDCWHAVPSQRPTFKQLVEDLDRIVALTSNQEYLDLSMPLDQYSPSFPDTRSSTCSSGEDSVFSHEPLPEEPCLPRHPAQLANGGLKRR

B1: humanized 5H23 antibody (VH SEQ ID NO: 271 and VL SEQ ID NO: 276) (antibody, V domains shown)
VH: QVQLQQSGAEVKKPGASVKVSCKASGYTFTSYDINWVRQAPGQGLEWIGWIYPGDGSTKYNEKFKGKATITRDTSASTAYMELSSLRSEDTAVYFCARSDYYGSRSFAYWGQGTLVTVSS
VL: DIVMTQSPDSLAVSLGERATINCRASKSVSTSGYVYMHWYQQKPGQPPKLLIYLASYLESGVPDRFSGSGSGTDFTLTISSVQAEDVAVYYCQHSRDLTFPFGGGTKLEIK
notes: also called h5H23; h5H23 (Prep 1)
Turning to B1, the EC50 adipocyte in assay [1] was 11.2 nM. Besides, the EC50 reporter assay in assay [1] was 0.6 nM. The “Binding Reactivity (% WT)” value in assay [2] was determined as 16.9 % WT; in assay [3], 0.64 % WT.
